Experimental findings from patent US20220348651A1, “ENTPD2 ANTIBODIES, COMBINATION THERAPIES, AND METHODS OF USING THE ANTIBODIES AND COMBINATION THERAPIES” (Novartis AG, priority 2019, published 2022) are described below.

One experiment concerns the target T1, ENTPD2 (Homo sapiens, UniProt Q9Y5L3).
T1 sequence (Q9Y5L3 1-495): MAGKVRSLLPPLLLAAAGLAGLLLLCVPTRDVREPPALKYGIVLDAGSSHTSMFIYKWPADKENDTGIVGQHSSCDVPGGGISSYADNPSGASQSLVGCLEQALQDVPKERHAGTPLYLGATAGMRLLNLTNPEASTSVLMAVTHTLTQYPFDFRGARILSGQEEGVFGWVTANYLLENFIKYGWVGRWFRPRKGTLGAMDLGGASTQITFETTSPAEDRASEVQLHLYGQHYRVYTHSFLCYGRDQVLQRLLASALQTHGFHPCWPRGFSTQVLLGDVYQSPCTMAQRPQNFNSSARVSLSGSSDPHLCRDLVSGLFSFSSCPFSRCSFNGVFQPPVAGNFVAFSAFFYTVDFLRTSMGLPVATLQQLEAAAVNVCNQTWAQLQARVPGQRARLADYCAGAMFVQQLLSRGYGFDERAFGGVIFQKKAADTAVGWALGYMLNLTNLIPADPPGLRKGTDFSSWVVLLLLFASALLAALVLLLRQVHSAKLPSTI
Description: FACS binding to human ENTPD2 expressing cells (apparent FACS affinity). On the set-up: expressed in transfected cells; host or cells: NIH/3T3 (retroviral transduction). The protocol:
[…] Cells were rinsed thoroughly with 1×PBS and treated with Accutase (Millipore #SCR005) to lift from growth plates and resuspended at approximately 1×10^5 cells/90 μL in 1× FACS buffer (2% FBS+0.1% NaN3 in PBS). In a 96-well U-bottom plate, 10 μL of 10× antibody solution in FACS buffer was pre-seeded and 90 μL of cell suspension was added. Cell were incubated for 30 minutes at 4° C., washed 1× with cold PBS and resuspended in 100 μL of 1:500 secondary antibody 1× FACS buffer (Allophycocyanin conjugated F(ab′)2 goat anti-human IgG, Fcγ specific; Jackson Immunoresearch, Cat#109-136-098). After additional incubation for 15 min at 4° C., cells were washed twice with PBS and resuspended in 100 μL of 1×FACS buffer with 4 μg/mL propidium iodide (Life Technologies, Cat#P3566). Geometric mean fluorescence intensity was calculated on live single cells using FlowJo software.
(In general: A flow cytometer gives signals particle by particle.)

The target of the next experiment is T2, human ENTPD2 (Homo sapiens, UniProt Q9Y5L3).
T2 construct: residues 29-462 of human or cyno ENTPD2 were cloned into expression vector; GP67 signal peptide (N); made in house; host or cells: High Five (Trichoplusia ni) insect cells, baculovirus
T2 sequence (Q9Y5L3 29-462): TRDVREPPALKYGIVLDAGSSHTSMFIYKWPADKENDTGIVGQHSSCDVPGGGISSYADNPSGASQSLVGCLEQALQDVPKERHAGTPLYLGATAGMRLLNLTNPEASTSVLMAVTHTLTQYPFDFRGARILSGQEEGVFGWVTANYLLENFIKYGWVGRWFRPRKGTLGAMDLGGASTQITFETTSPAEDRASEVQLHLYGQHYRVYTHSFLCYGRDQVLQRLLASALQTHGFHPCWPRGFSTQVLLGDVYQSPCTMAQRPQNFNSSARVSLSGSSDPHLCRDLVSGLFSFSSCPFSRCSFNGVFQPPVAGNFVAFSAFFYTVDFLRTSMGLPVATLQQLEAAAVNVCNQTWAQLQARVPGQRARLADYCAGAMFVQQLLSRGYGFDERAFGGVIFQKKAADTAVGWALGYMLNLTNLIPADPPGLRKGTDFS
Description: Biacore (SPR) affinity to human ENTPD2 ECD. The following applies: 25° C. The experiment is classed as binding. The procedure: Biacore Screening: Affinity was measured by determining the kinetic rate constants using surface plasmon resonance (SPR) on a Biacore T200 or T100 with the T200 sensitivity upgrade instrument (Biacore, GE Healthcare). Antibodies were captured on CM5 sensor chips (Biacore, GE Healthcare) prepared with a mouse anti-human IgG Fc antibody (ThermoFisher catalogue #05-4200) amine coupled to the surface. […] ENTPD2 analytes were allowed to associate for 180 s and dissociate for up to 1800 s depending on the off-rate of the antibody at a flow rate of 30 μL/min. The running buffer was PBS pH 7.2 (prepared from a Corning 10X stock, cat#46-013-CM)+0.05% Tween 20. Regeneration was accomplished with 30 s injections of 3 or 4 M MgCl2 to remove all the captured antibody and remaining complex from the surface, after which fresh antibody was captured. The raw data were analyzed using Biacore T200 Evaluation Software version 1.0 and fit to a 1:1 binding model, with all parameters set to fit globally except for RI, which was set to fit locally.
For orientation: Surface plasmon resonance follows binding to a sensor surface in real time, without labels.

The subject of another experiment is cyno ENTPD2. In words: FACS binding to cyno ENTPD2 expressing cells (apparent FACS affinity). Also noted: species or system cynomolgus monkey. The procedure: FACS screening: Specific binding of candidate antibodies to endogenously expressed ENTPD2 was assessed by flow cytometry. Cells were rinsed thoroughly with 1×PBS and treated with Accutase (Millipore #SCR005) to lift from growth plates and resuspended at approximately 1×10^5 cells/90 μL in 1× FACS buffer (2% FBS+0.1% NaN3 in PBS). In a 96-well U-bottom plate, 10 μL of 10× antibody solution in FACS buffer was pre-seeded and 90 μL of cell suspension was added. Cell were incubated for 30 minutes at 4° C., washed 1× with cold PBS and resuspended in 100 μL of 1:500 secondary antibody 1× FACS buffer (Allophycocyanin conjugated F(ab′)2 goat anti-human IgG, Fcγ specific; Jackson Immunoresearch, Cat#109-136-098). After additional incubation for 15 min at 4° C., cells were washed twice with PBS and resuspended in 100 μL of 1×FACS buffer with 4 μg/mL propidium iodide (Life Technologies, Cat#P3566). Geometric mean fluorescence intensity was calculated on live single cells using FlowJo software.
Sequence of cyno ENTPD2 (as listed by the source): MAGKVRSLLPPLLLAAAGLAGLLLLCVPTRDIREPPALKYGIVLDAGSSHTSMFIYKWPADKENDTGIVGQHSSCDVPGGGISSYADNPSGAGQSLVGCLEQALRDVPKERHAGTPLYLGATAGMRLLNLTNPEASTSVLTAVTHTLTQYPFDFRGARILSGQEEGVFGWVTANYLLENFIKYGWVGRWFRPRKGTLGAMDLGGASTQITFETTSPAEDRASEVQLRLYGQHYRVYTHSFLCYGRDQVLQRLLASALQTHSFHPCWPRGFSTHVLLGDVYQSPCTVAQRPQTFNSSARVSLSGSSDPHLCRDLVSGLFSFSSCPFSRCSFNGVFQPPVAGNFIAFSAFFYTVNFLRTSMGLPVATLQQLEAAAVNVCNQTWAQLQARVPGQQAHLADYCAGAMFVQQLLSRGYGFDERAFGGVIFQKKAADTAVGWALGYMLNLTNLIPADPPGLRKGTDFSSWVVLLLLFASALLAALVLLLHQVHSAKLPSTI

B1: mAb7: humanized anti-human ENTPD2 antibody from mAb17; VH SEQ ID NO: 25, VL SEQ ID NO: 78 (antibody, V domains shown)
VH: QVQLVQSGAEVVKPGASVKISCKASGYTFTDYNMDWVKQAPGQRLEWIGDINPKYDISTYNQQFKGKATITVDKSASTAYMELSSLRSEDTAVYYCARRGFFLYYGINYYYFDVWGQGTLVTVSS
VL: EIVLTQSPATLSASPGEEITLSCSASSSVSYIHWYQQKPGQAPRLLIYSTSNLASGIPARFSGSGSGTFYTLTISSVEPEDAAVYYCHQWSSYPWTFGGGTKLEIK
With B1, the EC50 – broadly, the midpoint of the concentration-response curve – in the experiment with ENTPD2 (NIH3T3 humanENTPD2 cells) is 0.5 nM. In the experiment with human ENTPD2, the Kd (in general, the free concentration of one partner at which half of the binding sites on the other are occupied at equilibrium, for simple one-to-one binding) worked out at 0.9 nM; the ka stood at 210000 M⁻¹ s⁻¹; the kd came out at 0.00019 s⁻¹. Besides, in the experiment on cyno ENTPD2 (NIH3T3 cynoENTPD2 cells), the EC50 turned out to be 0.8 nM.

B2: mAb13: anti-mouse ENTPD2 antibody; HC SEQ ID NO: 193, LC SEQ ID NO: 204 (antibody)
heavy: QVQLVQSGAELKQPGQSVKISCKASGYTFTHYGMNWVKQAPGQGLKWMGWINTDTGNPTYADDFKGRFVFSLDTSVSTAYLQISNLKNEDTATYYCVRYGTLYSGYGFFFDSWGQGTLVTVSSAKTTAPSVYPLAPVCGDTTGSSVTLGCLVKGYFPEPVTLTWNSGSLSSGVHTFPAVLQSDLYTLSSSVTVTSSTWPSQSITCNVAHPASSTKVDKKIEPRGPTIKPCPPCKCPAPNLLGGPSVFIFPPKIKDVLMISLSPIVTCVVVDVSEDDPDVQISWFVNNVEVHTAQTQTHREDYNSTLRVVSALPIQHQDWMSGKEFKCKVNNKDLPAPIERTISKPKGSVRAPQVYVLPPPEEEMTKKQVTLTCMVTDFMPEDIYVEWTNNGKTELNYKNTEPVLDSDGSYFMYSKLRVEKKNWVERNSYSCSVVHEGLHNHHTTKSFSRTPGK
light: DIMMTQSPSSLSVSAGEKATITCKSSQSLFNSNTNKNYLNWYLQKPGQSPKLLFYYASTRHTGVPDRFIGSGSGTDFTLTITSVQDEDLADYYCQQWYSYPWTFGPGTKLEIKRADAAPTVSIFPPSSEQLTSGGASVVCFLNNFYPKDINVKWKIDGSERQNGVLNSWTDQDSKDSTYSMSSTLTLTKDEYERHNSYTCEATHKTSTSPIVKSFNRNEC
On to B2, for which, in the experiment with ENTPD2, the “binding to human ENTPD2” value is “no binding”. Moreover, the “binding to cyno ENTPD2” value in the experiment with cyno ENTPD2 was “no binding”.
